# Article PMC9482650, “Quantitative fragmentomics allow affinity mapping of interactomes” (Nature Communications, 2022)
# T1: APBA1_1, Q02410
# T1 sequence (Q02410 651-752, limits assumed, looked up): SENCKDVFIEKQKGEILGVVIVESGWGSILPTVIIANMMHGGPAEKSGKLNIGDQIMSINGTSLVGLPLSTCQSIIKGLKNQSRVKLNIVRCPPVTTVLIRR
# T2: APBA3_1, O96018
# T2 sequence (O96018 389-490, limits assumed, looked up): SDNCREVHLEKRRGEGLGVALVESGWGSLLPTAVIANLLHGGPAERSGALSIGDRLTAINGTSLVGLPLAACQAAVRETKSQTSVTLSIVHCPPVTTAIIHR
# T3: ARHGAP21, Q5T5U3
# T3 sequence (Q5T5U3 45-169, limits assumed, looked up): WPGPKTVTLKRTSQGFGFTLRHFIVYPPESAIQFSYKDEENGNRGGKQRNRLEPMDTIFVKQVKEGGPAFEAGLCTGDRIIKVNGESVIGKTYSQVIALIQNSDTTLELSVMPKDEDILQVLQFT
# T4: DLG3_3, Q92796
# T4 sequence (Q92796 374-475, limits assumed, looked up): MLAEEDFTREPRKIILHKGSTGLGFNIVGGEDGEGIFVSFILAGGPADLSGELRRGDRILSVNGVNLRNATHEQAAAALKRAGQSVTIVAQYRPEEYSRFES
# T5: FRMPD1, Q5SYB0
# T5 sequence (Q5SYB0 52-145, limits assumed, looked up): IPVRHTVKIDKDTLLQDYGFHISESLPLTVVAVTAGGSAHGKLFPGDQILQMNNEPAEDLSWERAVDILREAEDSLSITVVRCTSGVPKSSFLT
# T6: LIN7C, Q9NUP9
# T6 sequence (Q9NUP9 88-185, limits assumed, looked up): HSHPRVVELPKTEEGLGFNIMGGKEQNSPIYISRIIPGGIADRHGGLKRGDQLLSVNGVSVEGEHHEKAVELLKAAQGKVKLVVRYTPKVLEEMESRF
# T7: LNX2_3, Q8N448
# T7 sequence (Q8N448 463-564, limits assumed, looked up): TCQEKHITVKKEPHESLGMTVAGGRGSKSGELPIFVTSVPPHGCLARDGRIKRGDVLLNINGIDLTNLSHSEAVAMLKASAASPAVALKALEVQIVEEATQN
# T8: LRRC7, Q96NW7
# T8 sequence (Q96NW7 1440-1537, limits assumed, looked up): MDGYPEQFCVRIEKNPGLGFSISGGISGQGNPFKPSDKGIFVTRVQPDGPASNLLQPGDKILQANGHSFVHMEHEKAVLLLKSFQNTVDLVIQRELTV
# T9: RAPGEF6, Q8TEU7
# T9 sequence (Q8TEU7 525-625, limits assumed, looked up): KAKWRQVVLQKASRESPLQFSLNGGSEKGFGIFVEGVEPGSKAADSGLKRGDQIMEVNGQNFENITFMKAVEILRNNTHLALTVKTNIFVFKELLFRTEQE
# T10: SHANK1, Q9Y566
# T10 sequence (Q9Y566 658-767, limits assumed, looked up): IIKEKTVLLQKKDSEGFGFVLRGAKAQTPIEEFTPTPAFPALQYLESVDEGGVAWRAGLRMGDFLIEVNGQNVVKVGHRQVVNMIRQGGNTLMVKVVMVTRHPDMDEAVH
# T11: TJP3_3, O95049
# T11 sequence (O95049 375-456, limits assumed, looked up): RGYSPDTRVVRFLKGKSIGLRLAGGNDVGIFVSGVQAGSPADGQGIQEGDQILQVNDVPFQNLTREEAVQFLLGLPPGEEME
# B1: CAVIN3, Q969G5 (peptide)
# chain: EALLQMESVA
# B2: AQP6, Q13520 (peptide)
# chain: GSGAVEMESV
# B3: GOT1L1, Q8NHS2 (peptide)
# chain: EKKTLIGIKL
# B4: TRAF2, Q12933 (peptide)
# chain: IKAIVDLTGL
# B5: HCN2, Q9UL51 (peptide)
# chain: SARSRLSSNL
# Molecular target: AHNAK1, Q09666
# Assay: holdup assay
# Parameters: key: below the threshold = too weak to quantify, mostly under pKd 3.1 to 4
# Details: plain residues with an end cap or a label only (N-terminal biotin on a linker: ado-ado)
# AHNAK1, Q09666, sequence (Q09666 4-100): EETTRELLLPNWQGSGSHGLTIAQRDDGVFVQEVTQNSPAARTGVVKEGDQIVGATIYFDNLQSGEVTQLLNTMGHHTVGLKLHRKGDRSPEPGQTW
row,Binder,pKd
1,B1,below the threshold
2,B2,below the threshold
3,B3,below the threshold
4,B4,below the threshold
5,B5,below the threshold

# Molecular target: T1, APBA1_1, Q02410
# Assay: holdup assay
# Parameters: key: below the threshold = too weak to quantify, mostly under pKd 3.1 to 4
# Details: plain residues with an end cap or a label only (N-terminal biotin on a linker: ado-ado)
row,Binder,pKd
1,B1,below the threshold
2,B2,below the threshold
3,B3,below the threshold
4,B4,below the threshold
5,B5,below the threshold

# Molecular target: T2, APBA3_1, O96018
# Assay: holdup assay
# Parameters: key: below the threshold = too weak to quantify, mostly under pKd 3.1 to 4
# Details: plain residues with an end cap or a label only (N-terminal biotin on a linker: ado-ado)
row,Binder,pKd
1,B1,below the threshold
2,B2,below the threshold
3,B3,below the threshold
4,B4,below the threshold
5,B5,below the threshold

# Molecular target: T3, ARHGAP21, Q5T5U3
# Assay: holdup assay
# Parameters: key: below the threshold = too weak to quantify, mostly under pKd 3.1 to 4
# Details: plain residues with an end cap or a label only (N-terminal biotin on a linker: ado-ado)
row,Binder,pKd
1,B1,below the threshold
2,B2,3.91
3,B3,4.09
4,B4,3.74
5,B5,4.37

# Molecular target: DLG2_2, Q15700
# Assay: holdup assay
# Parameters: key: below the threshold = too weak to quantify, mostly under pKd 3.1 to 4
# Details: plain residues with an end cap or a label only (N-terminal biotin on a linker: ado-ado)
# DLG2_2, Q15700, sequence (Q15700 189-283): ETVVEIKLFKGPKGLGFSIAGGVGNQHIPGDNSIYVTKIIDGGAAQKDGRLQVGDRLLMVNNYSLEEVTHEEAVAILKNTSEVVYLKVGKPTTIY
row,Binder,pKd
1,B1,below the threshold
2,B2,below the threshold
3,B3,below the threshold
4,B4,below the threshold
5,B5,below the threshold

# Molecular target: T4, DLG3_3, Q92796
# Assay: holdup assay
# Parameters: key: below the threshold = too weak to quantify, mostly under pKd 3.1 to 4
# Details: plain residues with an end cap or a label only (N-terminal biotin on a linker: ado-ado)
row,Binder,pKd
1,B1,below the threshold
2,B2,below the threshold
3,B3,below the threshold
4,B4,below the threshold
5,B5,below the threshold

# Molecular target: T5, FRMPD1, Q5SYB0
# Assay: holdup assay
# Parameters: key: below the threshold = too weak to quantify, mostly under pKd 3.1 to 4
# Details: plain residues with an end cap or a label only (N-terminal biotin on a linker: ado-ado)
row,Binder,pKd
1,B1,below the threshold
2,B2,below the threshold
3,B3,below the threshold
4,B4,below the threshold
5,B5,below the threshold

# Molecular target: FRMPD2_1, Q68DX3
# Assay: holdup assay
# Parameters: key: below the threshold = too weak to quantify, mostly under pKd 3.1 to 4
# Details: plain residues with an end cap or a label only (N-terminal biotin on a linker: ado-ado)
# FRMPD2_1, Q68DX3, sequence (Q68DX3 770-861): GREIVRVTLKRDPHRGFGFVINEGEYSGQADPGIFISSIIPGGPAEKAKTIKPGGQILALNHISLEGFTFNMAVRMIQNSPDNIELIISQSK
row,Binder,pKd
1,B1,3.62
2,B2,below the threshold
3,B3,3.88
4,B4,below the threshold
5,B5,below the threshold

# Molecular target: GRID2IP_1, A4D2P6
# Assay: holdup assay
# Parameters: key: below the threshold = too weak to quantify, mostly under pKd 3.1 to 4
# Details: plain residues with an end cap or a label only (N-terminal biotin on a linker: ado-ado)
# GRID2IP_1, A4D2P6, sequence (A4D2P6 1-87): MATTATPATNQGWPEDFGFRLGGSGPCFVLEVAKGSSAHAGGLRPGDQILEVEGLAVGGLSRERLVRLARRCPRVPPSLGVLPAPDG
row,Binder,pKd
1,B1,below the threshold
2,B2,below the threshold
3,B3,below the threshold
4,B4,below the threshold
5,B5,below the threshold

# Molecular target: Inadl_2, Q8NI35
# Assay: holdup assay
# Parameters: key: below the threshold = too weak to quantify, mostly under pKd 3.1 to 4
# Details: plain residues with an end cap or a label only (N-terminal biotin on a linker: ado-ado)
# Inadl_2, Q8NI35, sequence (Q8NI35 238-335): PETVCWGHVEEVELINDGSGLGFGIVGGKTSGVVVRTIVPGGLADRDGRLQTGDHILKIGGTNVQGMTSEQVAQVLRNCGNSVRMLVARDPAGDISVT
row,Binder,pKd
1,B1,below the threshold
2,B2,below the threshold
3,B3,below the threshold
4,B4,below the threshold
5,B5,below the threshold

# Molecular target: Inadl_4, Q8NI35
# Assay: holdup assay
# Parameters: key: below the threshold = too weak to quantify, mostly under pKd 3.1 to 4
# Details: plain residues with an end cap or a label only (N-terminal biotin on a linker: ado-ado)
# Inadl_4, Q8NI35, sequence (Q8NI35 547-651): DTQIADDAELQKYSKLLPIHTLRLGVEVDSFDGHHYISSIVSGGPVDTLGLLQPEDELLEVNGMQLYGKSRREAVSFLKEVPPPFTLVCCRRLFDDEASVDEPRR
row,Binder,pKd
1,B1,below the threshold
2,B2,below the threshold
3,B3,below the threshold
4,B4,below the threshold
5,B5,below the threshold

# Molecular target: Inadl_8, Q8NI35
# Assay: holdup assay
# Parameters: key: below the threshold = too weak to quantify, mostly under pKd 3.1 to 4
# Details: plain residues with an end cap or a label only (N-terminal biotin on a linker: ado-ado)
# Inadl_8, Q8NI35, sequence (Q8NI35 1425-1530): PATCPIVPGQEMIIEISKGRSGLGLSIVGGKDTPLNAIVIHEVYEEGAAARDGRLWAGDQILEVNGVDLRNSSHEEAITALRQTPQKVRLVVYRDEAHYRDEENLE
row,Binder,pKd
1,B1,below the threshold
2,B2,below the threshold
3,B3,below the threshold
4,B4,below the threshold
5,B5,below the threshold

# Molecular target: LDB3, O75112
# Assay: holdup assay
# Parameters: key: below the threshold = too weak to quantify, mostly under pKd 3.1 to 4
# Details: plain residues with an end cap or a label only (N-terminal biotin on a linker: ado-ado)
# LDB3, O75112, sequence (O75112 1-94): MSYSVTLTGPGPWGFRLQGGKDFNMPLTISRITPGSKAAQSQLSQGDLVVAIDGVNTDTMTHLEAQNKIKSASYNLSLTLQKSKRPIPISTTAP
row,Binder,pKd
1,B1,below the threshold
2,B2,below the threshold
3,B3,below the threshold
4,B4,below the threshold
5,B5,below the threshold

# Molecular target: T6, LIN7C, Q9NUP9
# Assay: holdup assay
# Parameters: key: below the threshold = too weak to quantify, mostly under pKd 3.1 to 4
# Details: plain residues with an end cap or a label only (N-terminal biotin on a linker: ado-ado)
row,Binder,pKd
1,B1,below the threshold
2,B2,below the threshold
3,B3,below the threshold
4,B4,below the threshold
5,B5,below the threshold

# Molecular target: T7, LNX2_3, Q8N448
# Assay: holdup assay
# Parameters: key: below the threshold = too weak to quantify, mostly under pKd 3.1 to 4
# Details: plain residues with an end cap or a label only (N-terminal biotin on a linker: ado-ado)
row,Binder,pKd
1,B1,below the threshold
2,B2,below the threshold
3,B3,below the threshold
4,B4,below the threshold
5,B5,below the threshold

# Molecular target: T8, LRRC7, Q96NW7
# Assay: holdup assay
# Parameters: key: below the threshold = too weak to quantify, mostly under pKd 3.1 to 4
# Details: plain residues with an end cap or a label only (N-terminal biotin on a linker: ado-ado)
row,Binder,pKd
1,B1,below the threshold
2,B2,below the threshold
3,B3,below the threshold
4,B4,below the threshold
5,B5,below the threshold

# Molecular target: MAGI2_3, Q86UL8
# Assay: holdup assay
# Parameters: key: below the threshold = too weak to quantify, mostly under pKd 3.1 to 4
# Details: plain residues with an end cap or a label only (N-terminal biotin on a linker: ado-ado)
# MAGI2_3, Q86UL8, sequence (Q86UL8 600-682): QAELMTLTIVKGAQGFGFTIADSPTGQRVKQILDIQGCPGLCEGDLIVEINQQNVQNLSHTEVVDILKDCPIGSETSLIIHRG
row,Binder,pKd
1,B1,below the threshold
2,B2,below the threshold
3,B3,below the threshold
4,B4,below the threshold
5,B5,below the threshold

# Molecular target: MAGI2_4, Q86UL8
# Assay: holdup assay
# Parameters: key: below the threshold = too weak to quantify, mostly under pKd 3.1 to 4
# Details: plain residues with an end cap or a label only (N-terminal biotin on a linker: ado-ado)
# MAGI2_4, Q86UL8, sequence (Q86UL8 772-865): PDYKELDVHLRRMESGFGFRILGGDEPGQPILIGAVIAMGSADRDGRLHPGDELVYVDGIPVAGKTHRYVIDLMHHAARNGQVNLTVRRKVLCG
row,Binder,pKd
1,B1,below the threshold
2,B2,below the threshold
3,B3,below the threshold
4,B4,below the threshold
5,B5,below the threshold

# Molecular target: MAGI3_2, Q5TCQ9
# Assay: holdup assay
# Parameters: key: below the threshold = too weak to quantify, mostly under pKd 3.1 to 4
# Details: plain residues with an end cap or a label only (N-terminal biotin on a linker: ado-ado)
# MAGI3_2, Q5TCQ9, sequence (Q5TCQ9 398-503): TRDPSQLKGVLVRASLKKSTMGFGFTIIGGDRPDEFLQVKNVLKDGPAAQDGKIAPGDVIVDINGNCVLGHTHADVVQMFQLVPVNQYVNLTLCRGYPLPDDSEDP
row,Binder,pKd
1,B1,below the threshold
2,B2,below the threshold
3,B3,below the threshold
4,B4,below the threshold
5,B5,4.18

# Molecular target: NHERF4_1, Q86UT5-2
# Assay: holdup assay
# Parameters: key: below the threshold = too weak to quantify, mostly under pKd 3.1 to 4
# Details: plain residues with an end cap or a label only (N-terminal biotin on a linker: ado-ado)
# NHERF4_1, Q86UT5-2, sequence (Q86UT5 other isoform, or with tags, fused parts or gaps): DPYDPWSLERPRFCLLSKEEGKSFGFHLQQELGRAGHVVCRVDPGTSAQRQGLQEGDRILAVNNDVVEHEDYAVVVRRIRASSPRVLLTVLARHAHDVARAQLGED
row,Binder,pKd
1,B1,3.59
2,B2,below the threshold
3,B3,3.81
4,B4,3.76
5,B5,3.96

# Molecular target: NHERF4_2, Q86UT5
# Assay: holdup assay
# Parameters: key: below the threshold = too weak to quantify, mostly under pKd 3.1 to 4
# Details: plain residues with an end cap or a label only (N-terminal biotin on a linker: ado-ado)
# NHERF4_2, Q86UT5, sequence (Q86UT5 220-308): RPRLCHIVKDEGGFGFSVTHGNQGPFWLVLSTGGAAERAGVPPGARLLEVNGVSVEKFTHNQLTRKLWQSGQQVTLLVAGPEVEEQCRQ
row,Binder,pKd
1,B1,below the threshold
2,B2,below the threshold
3,B3,below the threshold
4,B4,below the threshold
5,B5,below the threshold

# Molecular target: PARD3_3, Q8TEW0
# Assay: holdup assay
# Parameters: key: below the threshold = too weak to quantify, mostly under pKd 3.1 to 4
# Details: plain residues with an end cap or a label only (N-terminal biotin on a linker: ado-ado)
# PARD3_3, Q8TEW0, sequence (Q8TEW0 582-685): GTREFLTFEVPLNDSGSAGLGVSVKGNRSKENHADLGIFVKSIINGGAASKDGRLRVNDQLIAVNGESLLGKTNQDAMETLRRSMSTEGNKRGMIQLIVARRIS
row,Binder,pKd
1,B1,below the threshold
2,B2,below the threshold
3,B3,below the threshold
4,B4,below the threshold
5,B5,below the threshold

# Molecular target: PDLIM1, O00151
# Assay: holdup assay
# Parameters: key: below the threshold = too weak to quantify, mostly under pKd 3.1 to 4
# Details: plain residues with an end cap or a label only (N-terminal biotin on a linker: ado-ado)
# PDLIM1, O00151, sequence (O00151 1-87): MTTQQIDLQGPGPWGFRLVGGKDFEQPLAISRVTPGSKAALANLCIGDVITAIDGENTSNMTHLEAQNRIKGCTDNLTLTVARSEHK
row,Binder,pKd
1,B1,below the threshold
2,B2,below the threshold
3,B3,below the threshold
4,B4,below the threshold
5,B5,below the threshold

# Molecular target: PTPN3, P26045
# Assay: holdup assay
# Parameters: key: below the threshold = too weak to quantify, mostly under pKd 3.1 to 4
# Details: plain residues with an end cap or a label only (N-terminal biotin on a linker: ado-ado)
# PTPN3, P26045, sequence (P26045 505-587): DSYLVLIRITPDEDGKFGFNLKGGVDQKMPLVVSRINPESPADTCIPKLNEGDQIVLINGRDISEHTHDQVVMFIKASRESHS
row,Binder,pKd
1,B1,below the threshold
2,B2,below the threshold
3,B3,below the threshold
4,B4,3.91
5,B5,4.16

# Molecular target: T9, RAPGEF6, Q8TEU7
# Assay: holdup assay
# Parameters: key: below the threshold = too weak to quantify, mostly under pKd 3.1 to 4
# Details: plain residues with an end cap or a label only (N-terminal biotin on a linker: ado-ado)
row,Binder,pKd
1,B1,below the threshold
2,B2,below the threshold
3,B3,below the threshold
4,B4,below the threshold
5,B5,below the threshold

# Molecular target: T10, SHANK1, Q9Y566
# Assay: holdup assay
# Parameters: key: below the threshold = too weak to quantify, mostly under pKd 3.1 to 4
# Details: plain residues with an end cap or a label only (N-terminal biotin on a linker: ado-ado)
row,Binder,pKd
1,B1,below the threshold
2,B2,below the threshold
3,B3,below the threshold
4,B4,3.49
5,B5,4.09

# Molecular target: T11, TJP3_3, O95049
# Assay: holdup assay
# Parameters: key: below the threshold = too weak to quantify, mostly under pKd 3.1 to 4
# Details: plain residues with an end cap or a label only (N-terminal biotin on a linker: ado-ado)
row,Binder,pKd
1,B1,below the threshold
2,B2,below the threshold
3,B3,below the threshold
4,B4,below the threshold
5,B5,below the threshold
